Target: the molecule itself
Assay: native gel or EMSA

B1: UNC-103::GFP (natural protein, C. elegans, UniProt G5EFJ9 1-829, looked up)
chain: MKTAVFGRDSGEPGSPCGAPPSLTFTPPATLVPPTHHHSRSTNRGGVSGTGGGGSGGLQGAPGAGGPRASHSSRRTSRLHNNVSALGVLSLGADVLPEYKLQPTRIHHCTIVHYSPFKAVWDWIILLLVIYTAVFTPYVAAFLLRELQDTAKKSRFTEPLEIVDLIVDIMFIVDIIINFRTTYVNENDEACQVVSDPGKIATHYFKGWFIIDMVAAVPFDLLLVSTNSDETTTLIGLLKTARLLRLVRVARKLDRYSEYGAAVLLLLMATFALIAHWLACIWYAIGSAELSHKEYTWLHQLSKQLAQPYTSTNGTIPTGGPTLKSRYVTSLYFTLSTITSIGFGNVSATTDSEKIFTIIMMILGSLMYASVFGNVSAIIQRLYSGTARYHTEMSRLREFIRFHQIPNPLRQRLEEYFQHAWSYTNGIDMNLVLKGFPDCLQADICLHLNRNLLSGCAAFAGSTPGCLRALSMRFRTTHSPPGDTLVHRGDILTGLYFIARGSVEILNDDNTVMGILGKDDIFGENPLLYDEVGKSSCNVRALTYCDLHKILRDDLLDVLDMYPEFAETFCKNLTITYNLRDDAQSLRKKFDRHKLLRMSSSMNKDRYTTPPDGDHGNAAVRRSAESVSRCDSNPIDRRQSAGSRSSSRCSPPHAALTATRSEATPLLRRSTNHHEEDDALFDDIRAFARGNTVTMSPTVAGNSVSPTTAIHNDGIHSQQLSDRSDDYEERRANMFGRRLESIESQMERMQNKFNSDMETLIKLVKEQSIIRNNGSSNEEPNARYRPNNYISSAIRLPNGGGGGVVDEMRVSRLSSHEPPTPTQETDTIL
stoichiometry N: 4

— paper PMC6080891 (The Journal of General Physiology, 2018)
